Our source for the ATPase activity of 1 μM ClpGGI with increasing Pep134 concentrations (saturation of the stimulation values is paper PMC8024975.

The assay addresses P. aeruginosa ClpGGI WT (P. aeruginosa).

B1: peptide 134 (peptide)
peptide: FLRYLKASKVPLN
Consider B1, for which the ATPase activity of 1 μM ClpGGI with increasing Pep134 concentrations (saturation of the stimulation at 25 μM peptide) (ATP min^−1 monomer^−1) amounted to 108.
